From patent US6369237

Target: T1, MutY adenine DNA glycosylase (UniProt P17802)
T1 sequence: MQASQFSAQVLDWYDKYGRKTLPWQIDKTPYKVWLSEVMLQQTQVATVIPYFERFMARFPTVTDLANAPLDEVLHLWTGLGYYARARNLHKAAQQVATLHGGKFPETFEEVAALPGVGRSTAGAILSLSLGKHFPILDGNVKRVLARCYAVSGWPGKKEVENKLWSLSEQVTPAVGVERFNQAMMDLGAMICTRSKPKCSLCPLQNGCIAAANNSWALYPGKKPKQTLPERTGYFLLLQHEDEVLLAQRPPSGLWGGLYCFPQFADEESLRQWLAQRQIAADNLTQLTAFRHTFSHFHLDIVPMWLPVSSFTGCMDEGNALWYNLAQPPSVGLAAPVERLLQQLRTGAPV
Experiment: EMSA
Settings: pyrrolidine residue lacking a base (inhibitor 1); at least 20 times higher than 2a

In the case of pyrrolidine (inhibitor 1) abasic duplex, the Kd is reported as 0.065 nM.
